Test results taken from PMC7708039, “Tethering-facilitated DNA ‘opening’ and complementary roles of β-hairpin motifs in the Rad4/XPC DNA damage sensor protein”.

Legend:
[1] = target: T1, Rad4-Rad23 WT (no thrombin cleavage) (UniProt P14736;P32628 101-632;1-77+230-398, internal_change); assay: competitive EMSA; apparent Ks; 1000 nM cold CH7_NX competitor; EMSA: 5 mM BTP-HCl pH 6.8, 75 mM NaCl, 5 mM DTT, 5% glycerol, 0.74 mM CHAPS, 500 ug/ml BSA, room temperature 20 min, 5 nM labeled DNA, 1000 nM cold CH7_NX; settings: protein: recombinant; tags: N-terminal His tag on Rad4; copies: 1;1; label: 32P; 3-bp CCC/CCC mismatch; 5' overhang 1 nt at both ends
T1 sequence 1: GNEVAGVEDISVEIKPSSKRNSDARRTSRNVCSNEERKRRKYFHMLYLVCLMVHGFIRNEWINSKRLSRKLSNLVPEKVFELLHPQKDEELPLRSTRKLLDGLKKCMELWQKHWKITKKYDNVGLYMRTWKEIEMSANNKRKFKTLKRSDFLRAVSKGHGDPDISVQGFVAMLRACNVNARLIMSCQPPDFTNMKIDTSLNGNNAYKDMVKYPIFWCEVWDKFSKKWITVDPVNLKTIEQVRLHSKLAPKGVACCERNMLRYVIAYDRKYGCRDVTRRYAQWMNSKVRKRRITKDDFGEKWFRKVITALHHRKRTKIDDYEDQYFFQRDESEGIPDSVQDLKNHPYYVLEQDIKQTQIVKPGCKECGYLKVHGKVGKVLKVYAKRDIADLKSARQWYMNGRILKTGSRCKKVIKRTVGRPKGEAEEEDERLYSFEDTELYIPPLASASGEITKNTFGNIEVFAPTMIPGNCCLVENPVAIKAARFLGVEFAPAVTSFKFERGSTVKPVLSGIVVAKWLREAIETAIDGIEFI
T1 sequence 2: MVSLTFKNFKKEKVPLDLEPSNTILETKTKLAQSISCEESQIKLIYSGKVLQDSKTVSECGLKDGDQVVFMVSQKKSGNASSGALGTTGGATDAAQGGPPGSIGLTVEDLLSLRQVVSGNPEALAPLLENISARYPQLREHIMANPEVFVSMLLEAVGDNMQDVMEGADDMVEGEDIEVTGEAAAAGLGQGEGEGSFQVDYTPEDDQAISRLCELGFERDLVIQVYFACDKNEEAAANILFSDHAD

[2] = target: T2, Rad4-Rad23 delta-beta-hairpin3 (<137>) (UniProt P14736;P32628 101-598+606-632;1-77+230-398, internal_change;internal_change); assay: as above; settings: protein: recombinant; tags: N-terminal His tag on Rad4; copies: 1;1; label: 32P; 3-bp CCC/CCC mismatch; 5' overhang 1 nt at both ends
T2 sequence 1: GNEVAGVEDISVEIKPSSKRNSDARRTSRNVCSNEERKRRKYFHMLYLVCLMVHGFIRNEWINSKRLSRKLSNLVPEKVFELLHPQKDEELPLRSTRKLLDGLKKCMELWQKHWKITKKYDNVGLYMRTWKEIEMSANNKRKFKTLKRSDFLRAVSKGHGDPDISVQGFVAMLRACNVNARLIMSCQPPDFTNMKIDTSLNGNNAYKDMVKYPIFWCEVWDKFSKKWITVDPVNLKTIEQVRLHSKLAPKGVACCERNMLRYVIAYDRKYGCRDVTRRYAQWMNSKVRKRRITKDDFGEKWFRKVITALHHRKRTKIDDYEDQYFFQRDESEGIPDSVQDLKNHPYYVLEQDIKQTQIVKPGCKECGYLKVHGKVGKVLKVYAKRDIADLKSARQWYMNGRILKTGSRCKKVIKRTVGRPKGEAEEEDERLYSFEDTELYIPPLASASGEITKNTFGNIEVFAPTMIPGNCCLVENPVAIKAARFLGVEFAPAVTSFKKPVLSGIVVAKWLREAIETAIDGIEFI
T2 sequence 2: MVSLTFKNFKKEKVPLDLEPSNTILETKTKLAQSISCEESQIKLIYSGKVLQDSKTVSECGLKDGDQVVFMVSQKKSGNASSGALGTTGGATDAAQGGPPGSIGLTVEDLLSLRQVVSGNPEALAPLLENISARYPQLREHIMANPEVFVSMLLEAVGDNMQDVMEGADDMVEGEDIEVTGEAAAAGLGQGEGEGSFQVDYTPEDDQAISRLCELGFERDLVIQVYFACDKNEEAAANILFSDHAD

[3] = target: T3, Rad4-Rad23 delta-beta-hairpin2 (<130>) (UniProt P14736;P32628 101-514+528-632;1-77+230-398, internal_change;internal_change); assay: as above; settings: protein: recombinant; tags: N-terminal His tag on Rad4; copies: 1;1; label: 32P; 3-bp CCC/CCC mismatch; 5' overhang 1 nt at both ends
T3 sequence 1: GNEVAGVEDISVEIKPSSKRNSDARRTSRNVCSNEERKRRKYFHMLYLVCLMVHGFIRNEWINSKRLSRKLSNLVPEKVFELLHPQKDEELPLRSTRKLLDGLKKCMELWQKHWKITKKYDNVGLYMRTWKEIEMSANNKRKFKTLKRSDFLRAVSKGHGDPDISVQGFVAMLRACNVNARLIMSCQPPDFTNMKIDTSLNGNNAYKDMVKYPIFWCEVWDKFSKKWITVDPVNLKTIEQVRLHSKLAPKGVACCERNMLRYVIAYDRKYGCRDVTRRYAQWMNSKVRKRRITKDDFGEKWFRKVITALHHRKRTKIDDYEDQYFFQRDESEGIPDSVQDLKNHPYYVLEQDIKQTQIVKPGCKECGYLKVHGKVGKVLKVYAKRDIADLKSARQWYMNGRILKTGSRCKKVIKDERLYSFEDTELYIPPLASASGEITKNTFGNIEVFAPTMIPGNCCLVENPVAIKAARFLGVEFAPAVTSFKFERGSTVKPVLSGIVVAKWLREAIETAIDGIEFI
T3 sequence 2: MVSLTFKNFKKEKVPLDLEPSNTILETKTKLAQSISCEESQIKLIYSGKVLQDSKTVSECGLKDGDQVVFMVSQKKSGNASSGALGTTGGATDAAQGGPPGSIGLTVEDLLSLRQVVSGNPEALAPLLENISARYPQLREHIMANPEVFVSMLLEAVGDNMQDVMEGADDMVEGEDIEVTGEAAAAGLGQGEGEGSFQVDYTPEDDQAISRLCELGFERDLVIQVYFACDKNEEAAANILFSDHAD

[4] = target: T4, Rad4-Rad23 WT crosslinkable (<SC32>) (UniProt P14736;P32628 101-632;1-77+230-398, V131C;C132S;internal_change); assay: fluorescence lifetime FRET; non-covalent, equimolar; EMSA: 5 mM BTP-HCl pH 6.8, 75 mM NaCl, 5 mM DTT, 5% glycerol, 0.74 mM CHAPS, 500 ug/ml BSA, room temperature 20 min, 5 nM labeled DNA, 1000 nM cold CH7_NX; settings: protein: recombinant; tags: N-terminal His tag on Rad4 (fluorescence); copies: 1;1; label: tCo donor, tCnitro acceptor; 3-bp CCC/CCC mismatch
T4 sequence 1: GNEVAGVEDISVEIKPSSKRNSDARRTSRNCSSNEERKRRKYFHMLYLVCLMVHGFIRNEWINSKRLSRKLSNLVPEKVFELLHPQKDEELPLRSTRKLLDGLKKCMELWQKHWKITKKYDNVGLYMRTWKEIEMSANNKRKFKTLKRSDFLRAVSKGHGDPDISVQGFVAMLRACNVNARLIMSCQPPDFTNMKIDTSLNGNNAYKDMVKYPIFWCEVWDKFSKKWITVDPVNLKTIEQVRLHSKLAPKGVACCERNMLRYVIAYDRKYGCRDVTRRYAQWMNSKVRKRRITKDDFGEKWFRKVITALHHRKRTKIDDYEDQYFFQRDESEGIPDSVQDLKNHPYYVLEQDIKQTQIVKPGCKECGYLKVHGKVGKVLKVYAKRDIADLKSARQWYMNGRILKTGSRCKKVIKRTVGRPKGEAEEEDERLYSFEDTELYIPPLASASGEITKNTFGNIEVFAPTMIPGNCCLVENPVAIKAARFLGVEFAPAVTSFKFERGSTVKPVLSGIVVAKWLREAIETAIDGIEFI
T4 sequence 2: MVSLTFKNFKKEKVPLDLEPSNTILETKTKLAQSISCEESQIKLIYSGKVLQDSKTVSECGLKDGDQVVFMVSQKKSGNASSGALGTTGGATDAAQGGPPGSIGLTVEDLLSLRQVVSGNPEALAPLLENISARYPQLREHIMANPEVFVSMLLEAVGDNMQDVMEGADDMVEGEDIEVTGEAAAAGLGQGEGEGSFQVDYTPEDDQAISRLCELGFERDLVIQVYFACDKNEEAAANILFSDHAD

[5] = target: T1, Rad4-Rad23 WT (no thrombin cleavage); assay: competitive EMSA; apparent Kns; 1000 nM cold CH7_NX competitor; EMSA: 5 mM BTP-HCl pH 6.8, 75 mM NaCl, 5 mM DTT, 5% glycerol, 0.74 mM CHAPS, 500 ug/ml BSA, room temperature 20 min, 5 nM labeled DNA, 1000 nM cold CH7_NX; settings: protein: recombinant; tags: N-terminal His tag on Rad4; copies: 1;1; label: 32P; fully matched; 5' overhang 1 nt at both ends
[6] = target: T2, Rad4-Rad23 delta-beta-hairpin3 (<137>); assay: as above; settings: protein: recombinant; tags: N-terminal His tag on Rad4; copies: 1;1; label: 32P; fully matched; 5' overhang 1 nt at both ends
[7] = target: T3, Rad4-Rad23 delta-beta-hairpin2 (<130>); assay: as above; settings: protein: recombinant; tags: N-terminal His tag on Rad4; copies: 1;1; label: 32P; fully matched; 5' overhang 1 nt at both ends

B1: CCC/CCC mismatched (CH10_NX) (dsDNA)
DNA 1: TTGACTCGACATCCCCCGCTACAA
DNA 2: ATTGTAGCCCCGGATGTCGAGTCA
- Kd [1]: ~60 nM
- Kd [2]: ~200 nM
- Kd [3]: ~260 nM

B2: CCC/CCC_G*_DA (dsDNA)
DNA 1: TTGACTCGACATCCCCCGGTACAA
DNA 2: ATTGTACCCCCGGATGTCGAGTCA
modifications: disulfide-modified guanine G* in top strand
- binding result [4]: binds

B3: CCC/GGG matched (dsDNA)
DNA 1: TTGACTCGACATCCCCCGCTACAA
DNA 2: ATTGTAGCGGGGGATGTCGAGTCA
- Kd [5]: ~370 nM
- Kd [6]: ~510 nM
- Kd [7]: ~700 nM
